This passage reports Kd results from patent US20200317768A1 (published 2020).

The labels stand for the following.
B1: MS_M103205H795-SG1/M103202L889-SK1 (antibody, human IgG1, kappa)
heavy: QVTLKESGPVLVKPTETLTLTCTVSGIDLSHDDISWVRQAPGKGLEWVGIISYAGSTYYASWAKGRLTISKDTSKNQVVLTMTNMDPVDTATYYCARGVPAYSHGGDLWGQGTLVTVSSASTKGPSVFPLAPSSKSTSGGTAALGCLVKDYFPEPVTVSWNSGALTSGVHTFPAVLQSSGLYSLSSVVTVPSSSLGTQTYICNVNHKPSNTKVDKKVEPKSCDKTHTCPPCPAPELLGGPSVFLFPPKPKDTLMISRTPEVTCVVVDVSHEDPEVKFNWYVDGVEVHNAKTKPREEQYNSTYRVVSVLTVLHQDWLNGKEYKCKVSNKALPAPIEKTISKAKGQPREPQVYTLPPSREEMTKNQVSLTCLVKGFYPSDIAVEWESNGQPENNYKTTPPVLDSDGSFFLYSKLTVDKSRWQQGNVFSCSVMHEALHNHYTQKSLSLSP
light: DIVMTQSPATLSLSPGERATLSCTSSQSVYHANWLSWFQQKPGQPPKLLIYWASTLAYGVPSRFSGSGSGTDFTLTISSLQPEDAATYYCAGGYGGGRYAFGQGTKVEIKRTVAAPSVFIFPPSDEQLKSGTASVVCLLNNFYPREAKVQWKVDNALQSGNSQESVTEQDSKDSTYSLSSTLTLSKADYEKHKVYACEVTHQGLSSPVTKSFNRGEC
notes: Parent antibody with SG1 human heavy chain constant region; also called MS1032LO06-SG1
B2: M103205H795-MY201 / M103202L889-SK1 (antibody, human IgG1, kappa)
heavy: QVTLKESGPVLVKPTETLTLTCTVSGIDLSHDDISWVRQAPGKGLEWVGIISYAGSTYYASWAKGRLTISKDTSKNQVVLTMTNMDPVDTATYYCARGVPAYSHGGDLWGQGTLVTVSSASTKGPSVFPLAPSSKSTSGGTAALGCLVKDYFPEPVTVSWNSGALTSGVHTFPAVLQSSGLYSLSSVVTVPSSSLGTQTYICNVNHKPSNTKVDKKVEPKSCDKTHTCPPCPAPELLNGPSVFLFPPKPKDTLMISRTPEVTCVVVDVSDEDPEVKFNWYVDGVEVHNAKTKPREEQYNSTYRVVSVLTVLHQDWLNGKEYKCKVSNKALPKPIEKTISKAKGQPREPQVYTLPPSREEMTKNQVSLTCLVKGFYPSDIAVEWESNGQPENNYKTTPPVLDSDGSFFLYSKLTVDKSRWQQGNVFSCSVMHEALHNHYTQKSLSLSP
light: B1 light
notes: CH with G236N/H268D/A330K against SG1 (EU numbering); also called MS1032LO06-MY201
B3: M103205H795-MY101 / M103202L889-SK1 (antibody, human IgG1, kappa)
heavy: B2 heavy with D270E, P398M
light: B1 light
notes: CH with G236N/H268E/A330K/P396M against SG1 (EU numbering); also called MS1032LO06-MY101
B4: MS1032LO06-SG1 (M103205H795-SG1/M103202L889-SK1) (antibody, human IgG1, kappa)
heavy: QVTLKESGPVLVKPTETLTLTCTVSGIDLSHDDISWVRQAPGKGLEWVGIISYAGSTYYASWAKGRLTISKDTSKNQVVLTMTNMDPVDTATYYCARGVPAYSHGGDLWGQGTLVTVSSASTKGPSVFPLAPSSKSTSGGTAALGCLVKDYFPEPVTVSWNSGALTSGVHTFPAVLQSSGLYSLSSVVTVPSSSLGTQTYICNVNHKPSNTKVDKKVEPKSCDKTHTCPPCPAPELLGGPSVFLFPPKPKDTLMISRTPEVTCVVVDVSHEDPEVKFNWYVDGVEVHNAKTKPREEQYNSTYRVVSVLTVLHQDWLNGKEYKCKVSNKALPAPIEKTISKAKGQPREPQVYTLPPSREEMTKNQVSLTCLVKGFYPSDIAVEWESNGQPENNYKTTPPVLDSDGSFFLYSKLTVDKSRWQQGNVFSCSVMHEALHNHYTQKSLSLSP
light: B1 light
notes: Anti-latent myostatin antibody; Parent of the Fc variants; copies: 2 + 2
B5: M103205H795-MY260/M103202L889-SK1 (antibody, human IgG1, kappa)
heavy: B2 heavy with N238M
light: B1 light
notes: copies: 2 + 2
B6: M103205H795-MY264/M103202L889-SK1 (antibody, human IgG1, kappa)
heavy: B2 heavy with N238L
light: B1 light
notes: copies: 2 + 2
B7: M103205H795-MY263/M103202L889-SK1 (antibody, human IgG1, kappa)
heavy: B2 heavy with N238Q
light: B1 light
notes: copies: 2 + 2
B8: M103205H795-MY267/M103202L889-SK1 (antibody, human IgG1, kappa)
heavy: B2 heavy with N238I
light: B1 light
notes: copies: 2 + 2
B9: M103205H795-MY261/M103202L889-SK1 (antibody, human IgG1, kappa)
heavy: B2 heavy with N238H
light: B1 light
notes: copies: 2 + 2
B10: M103205H795-MY265/M103202L889-SK1 (antibody, human IgG1, kappa)
heavy: B2 heavy with N238T
light: B1 light
notes: copies: 2 + 2
B11: M103205H795-MY262/M103202L889-SK1 (antibody, human IgG1, kappa)
heavy: B2 heavy with N238V
light: B1 light
notes: copies: 2 + 2
B12: M103205H795-MY201/M103202L889-SK1 (antibody, human IgG1, kappa)
heavy: B2 heavy
light: B1 light
notes: Fc variant G236N/H268D/A330K (EU numbering) of SG1; also called MS1032LO06-MY201; copies: 2 + 2

Positions count from the first letter of the chain named. Names may count otherwise.

T2 sequence (P08637 17-208 F176V): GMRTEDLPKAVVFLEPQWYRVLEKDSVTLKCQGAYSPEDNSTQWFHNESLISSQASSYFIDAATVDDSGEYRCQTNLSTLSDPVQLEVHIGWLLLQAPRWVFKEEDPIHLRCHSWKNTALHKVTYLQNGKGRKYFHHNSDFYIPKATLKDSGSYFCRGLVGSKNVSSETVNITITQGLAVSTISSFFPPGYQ

The target in one experiment is T1, human FcγRIIb extracellular domain, C-terminal His-tag (human, UniProt P31994 43-217).
T1 construct: also called humanFcgRIIb; not shown: His-tag added to C-terminus
T1 sequence: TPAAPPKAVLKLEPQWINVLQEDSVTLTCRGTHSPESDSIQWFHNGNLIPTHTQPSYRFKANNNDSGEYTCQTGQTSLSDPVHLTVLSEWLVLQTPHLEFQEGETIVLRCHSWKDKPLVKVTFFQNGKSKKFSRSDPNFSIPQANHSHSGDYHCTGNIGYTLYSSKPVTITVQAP
The experiment is described as follows: SPR (BIACORE), antibody captured, FcγR analyte. How it is done: (§1) The kinetic analysis of interactions between these antibodies and FcγR was carried out using BIACORE® T200 or BIACORE® 4000 (GE Healthcare). HBS-EP+ (GE Healthcare) was used as the running buffer, and the measurement temperature was set to 25° C. A chip produced by immobilizing Protein A. Protein A/G or mouse anti-human IgG kappa light chain (BD Biosciences) onto a Series S Sensor Chip CM4 or CM5 (GE Healthcare) by the amine-coupling method was used. […] After the measurement, the antibody captured on the chip was washed off by allowing reaction with 10 mM glycine-HCl, pH1.5 and 25 mM NaOH so that the chip was regenerated and used repeatedly. The sensorgrams obtained as measurement results were analyzed by the 1:1 Langmuir binding model using the BIACORE® Evaluation Software to calculate the binding rate constant ka (L/mol/s) and dissociation rate constant kd (l/s), and the dissociation constant KD (mol/L) was calculated from these values. […] Regarding such interactions, KD values were calculated using the following 1:1 binding model described in BIACORE® T100 Software Handbook BR1006-48 Edition AE.
(§2) The behavior of interacting molecules according to the 1:1 binding model on BIACORE® can be described by Equation 1: Req=C·R max/(KD+C)+RI, wherein, Req is a plot of steady-state binding levels to analyte concentration. C is concentration, RI is bulk refractive index contribution in the sample, and Rmax is analyte binding capacity of the surface. When this equation is rearranged, KD can be expressed as Equation 2: KD=C·Rmax/(Req−RI)−C. KD can be calculated by substituting the values of Rmax, RI, and C into Equation 1 or Equation 2. From the current measurement conditions, RI=0, C=2 μmol/L can be used.
Background: SPR reads the build-up and loss of mass on a sensor chip optically.
Usually Kd stands for the constant that tells how readily two partners part at equilibrium. Regarding B1, the affinity, expressed as Kd, was 4.6 µM.
Still for that read-out and setting: next, B2: 1.1 µM; B3: 0.49 µM.

A further experiment has as its target T2, human FcγRIIIaV extracellular domain, C-terminal His-tag (human, UniProt P08637 17-208).
T2 construct: also called FcgRIIIaV; not shown: His-tag added to C-terminus
The experiment is described as follows: SPR (BIACORE), antibody captured, FcγR analyte. The method, then: as §1, §2
As for B1, the Kd was 0.81 µM.
The molecule B2 returned a dissociation constant Kd of 24 µM.
On the same count and under the same terms, next, B3: 11 µM.

Another experiment has as its target T3, cynomolgus monkey FcγRIIb extracellular domain, C-terminal His-tag (cynomolgus monkey).
T3 construct: also called cyno FcγRIIb; cynoFcγRIIb; not shown: His-tag added to C-terminus
T3 chain: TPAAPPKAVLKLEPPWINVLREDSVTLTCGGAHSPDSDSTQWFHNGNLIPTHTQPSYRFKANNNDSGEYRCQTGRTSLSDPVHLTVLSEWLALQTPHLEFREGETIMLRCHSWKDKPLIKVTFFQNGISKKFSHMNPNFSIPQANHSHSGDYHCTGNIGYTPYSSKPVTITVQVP
The experiment is described as follows: SPR (BIACORE), antibody captured, FcγR analyte. How it is done:
as §1, §2
As for B1, the dissociation constant Kd came out at 1.8 µM.
In turn, B2 yielded a dissociation constant (Kd) of 0.43 µM.
Same read-out and setting: with B3 the figure was 0.35 µM.

The target of another experiment is T4, cynomolgus monkey FcγRIIa2 extracellular domain, C-terminal His-tag (cynomolgus monkey).
T4 construct: also called cyno FcγRIIa2; cynoFcgRIIa2; not shown: His-tag added to C-terminus
T4 chain: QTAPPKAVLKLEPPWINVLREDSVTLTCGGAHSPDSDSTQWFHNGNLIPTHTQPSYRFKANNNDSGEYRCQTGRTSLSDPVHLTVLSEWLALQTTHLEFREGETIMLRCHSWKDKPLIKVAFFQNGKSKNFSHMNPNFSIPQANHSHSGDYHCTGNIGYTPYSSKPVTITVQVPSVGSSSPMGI
The experiment is described as follows: SPR (BIACORE), antibody captured, FcγR analyte. The method, then: as §1, §2
On to B1, for which the Kd turned out to be 5.1 µM.
On the same count and under the same terms, with B2 the figure was 1.4 µM.
Same read-out and setting: next, B3: 1.2 µM.

For another experiment, the target named is T5, cynomolgus monkey FcγRIIIaS extracellular domain, C-terminal His-tag (cynomolgus monkey, UniProt A3RFZ7 21-206 (rhesus entry)).
T5 construct: also called cyno FcγRIIIaS; cynoFcγRIIIaS; not shown: His-tag added to C-terminus
T5 sequence (A3RFZ7 21-206): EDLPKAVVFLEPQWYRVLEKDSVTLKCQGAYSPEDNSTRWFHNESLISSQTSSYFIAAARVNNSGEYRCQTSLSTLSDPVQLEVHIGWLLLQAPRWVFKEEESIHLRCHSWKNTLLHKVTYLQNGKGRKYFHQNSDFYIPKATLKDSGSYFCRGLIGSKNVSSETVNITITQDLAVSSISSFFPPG
The experiment is described as follows: SPR (BIACORE), antibody captured, FcγR analyte. How it is done:
as §1, §2
B1 returned a dissociation constant Kd of 0.36 µM.
Same read-out and setting: next, B2: 5.7 µM; B3: 3.2 µM.

A further experiment concerns the target T6, human FcγRIIaR extracellular domain, C-terminal His-tag (human, UniProt P12318 34-217).
T6 construct: also called human FcγRIIa (type R); FcgRIIaR; not shown: His-tag added to C-terminus
T6 chain: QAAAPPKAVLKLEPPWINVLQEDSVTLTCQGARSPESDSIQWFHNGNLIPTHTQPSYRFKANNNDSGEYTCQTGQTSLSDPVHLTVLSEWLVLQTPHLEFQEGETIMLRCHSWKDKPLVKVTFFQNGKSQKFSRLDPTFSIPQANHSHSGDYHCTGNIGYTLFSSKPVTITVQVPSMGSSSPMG
The experiment is described as follows: SPR (BIACORE), antibody captured, FcγR analyte. The method, then:
as §1, §2
B1 showed a Kd of 1.1 µM.
Consider B2, for which binding was characterised by a dissociation constant (Kd) of 1.9 µM.
The same measure, in the same setting: with B3 the figure was 0.87 µM.

Another experiment deals with T7, cynomolgus monkey FcγRIIa2 extracellular domain, His-tagged (cynomolgus monkey).
T7 construct: also called cyno FcgRIIa2; cynoFcγRIIa2; not shown: His-tag added to the C-terminus
T7 chain: T4 chain
The experiment is described as follows: SPR (BIACORE), antibody captured, FcγR as analyte, 25°C. How it is done: as §1, §2
In turn, B4 registered an equilibrium dissociation constant (Kd) of 5.1 µM.
B5 yielded a Kd of 3.7 µM.
The same measure, in the same setting: next, B6: 5.5 µM; B7: 3 µM; B8: 20 µM.
The same measure, in the same setting: next, B9: 4 µM.
The same measure, in the same setting: with B10 the figure was 1.9 µM.
The molecule B11 came in with a Kd of 1.7 µM.
Turning to B12, the dissociation constant (Kd) was found to be 1.4 µM.

The target of another experiment is T8, human FcγRIIb extracellular domain, His-tagged (human, UniProt P31994 43-217).
T8 construct: also called human FcgRIIb; not shown: His-tag added to the C-terminus
T8 sequence: T1 sequence
The description is as above. The method, then:
as §1, §2
The molecule B4 returned an equilibrium dissociation constant (Kd) of 4.6 µM.
Still for that read-out and setting: next, B5: 6.1 µM; B6: 12 µM; B7: 3.5 µM.
For the molecule B8, the Kd was 5.7 µM.
Molecule B9 returned a Kd of 5.3 µM.
The same measure, in the same setting: with B10 the figure was 2.2 µM.
As for B11, binding was put at a Kd of 6 µM.
Still for that read-out and setting: with B12 the figure was 1.1 µM.

For a further experiment, the target named is T9, human FcγRIIaR extracellular domain, His-tagged (human, UniProt P12318 34-217).
T9 construct: also called human FcgRIIaR; FcγRIIa (type R); not shown: His-tag added to the C-terminus
T9 chain: T6 chain
The experiment is described as above. How it is done:
as §1, §2
B4 registered a Kd of 1.1 µM.
As for B5, the equilibrium dissociation constant (Kd) turned out to be 1.8 µM.
Still for that read-out and setting: with B6 the figure was 2.3 µM; with B7, 0.71 µM; with B8, 0.72 µM.
Same read-out and setting: with B9 the figure was 1.1 µM.
The molecule B10 gave a Kd of 0.44 µM.
Still for that read-out and setting: next, B11: 0.71 µM; B12: 1.9 µM.

The target of the next experiment is T10, cynomolgus monkey FcγRIIa1 extracellular domain, His-tagged (cynomolgus monkey).
T10 construct: also called cyno FcgRIIa1; cynoFcγRIIa1; not shown: His-tag added to the C-terminus
T10 chain: T4 chain with T95P, A121T, K127I, S128A, N130K, N135D, Q142R
The description is as above. How it is done:
as §1, §2
B4 displayed a dissociation constant (Kd) of 3.2 µM.
Molecule B5 showed a Kd of 4.5 µM.
On the same count and under the same terms, next, B6: 5.6 µM; B7: 3.2 µM; B8: 24 µM.
Still for that read-out and setting: with B9 the figure was 3.7 µM; with B10, 2.2 µM; with B11, 1.9 µM.
Same read-out and setting: with B12 the figure was 1.4 µM.
